The text below walks through data of a protein production outcome set (Wang et al. 2014).

The nature of the data set: label from the status in PepcDB records.

In the case of “MRINPGEITKVLEEKIKSFEEKIDLEDTGKVIQVGDGIARAYGLNKVMVSELVEFVETGVKGVAFNLEEDNVGIIILGEYKDIKEGHTVRRLKRIIEVPVGEELLGRVVNPLGEPLDGKGPINAKNFRPIEIKAPGVIYRKPVDTPLQTGIKAIDSMIPIGRGQRELIIGDRQTGKTAIAIDTIINQKGQGVYCIYVAIGQKKSAIARIIDKLRQYGAMEYTTVVVASASDPASLQYIAPYAGCAMGEYFAYSGRDALVVYDDLSKHAVAYRQLSLLMRRPPGREAYPGDIFYLHSRLLERAVRLNDKLGGGSLTALPIVETQANDISAYIPTNVISITDGQIYLEPGLFYAGQRPAINVGLSVSRVGGSAQIKAMKQVAGMLRIDLAQYRELETFAQFATELDPATRAQIIRGQRLMELLKQEQYSPMPVEEQVVVLFAGVRGYLDDLPVEEVRRFEKEFLRFMHEKHQDILDDIKTKKELTSETEEKLKKAIEEFKTTFRV”, the protein production result is reported as “not failed”.
On to “MRISAWLLCSLSFIAPLSWAESSPADIAAQKQQQILFFNHDDRDIVPDTAVWPWQAIGQLETASGNLCTATLISPHLALTAGHCVVTPPKGEIDNPVALRFLATENGWRYETTEIEALANKTLAKKLKADGEGWIVPPSAAPLDYALIRLKQTPPGIRPLPLWQGSRQELMQALKDNGQRVTQAGYPEDHQETLYRHQDCLITGWVHAAVMAHQCDTLPGDSGSPLMLNSAAGWVLMGIQSSAPDASERDRADNRAVSVTAIRQQLETLAKLSSPKPGSPKLSPK”, for which the protein production result is “failed”.
The entry for “MRITSTANPRIKELARLLERKHRDSQRRFLIEGAREIERALQAGIELEQALVWEGGLNPEEQQVYAALGRVGRLALLEVSEAVLKKLSVRDNPAGLIALARMPERTLEEYRPSPDALILVAVGLEKPGNLGAVLRSADAAGAEAVLVAGGVDLYSPQVIRNSTGVVFSLRTLAASESEVLDWIKQHNLPLVATTPHAEALYWEANLRPPVAIAVGPEHEGLRAAWLEAAQTQVRIPMQGQADSLNVSVSAALLLYEALRQRLLRDRLTKTHSTL” is “not failed”; for “MRIVAPVMPRHFDEAQAIDISKYEDVNLIEWRADFLPKDEIVAVAPAIFEKFAGKEIIFTLRTVQEGGNITLSSQEYVDIIKEINAIYNPDYIDFEYFTHKSVFQEMLDFPNLILSYHNFEETPENLMEAFSEMTKLAPRVVKIAVMPQSEQDVLDLMNYTRGFKTLNPEQEFATISMGKLGRLSRFAGDVIGSSWTYVSLDHVSGPGQVTLNDMKRIIEVLEMDISN” it is “not failed”; for “MRIVPFGAAREVTGSAHLLLAGGRRVLLDCGMFQGKEEARNHAPFGFDPKEVDAVLLTHAHLDHVGRLPKLFREGYRGPVYATRATVLLMEIVLEDALKVMDEPFFGPEDVEEALGHLRPLEYGEWLRLGALSLAFGQAGHLPGSAFVVAQGEGRTLVYSGDLGNREKDVLPDPSLPPLADLVLAEGTYGDRPHRPYRETVREFLEILEKTLSQGGKVLIPTFAVERAQEILYVLYTHGHRLPRAPIYLDSPMAGRVLSLYPRLVRYFSEEVQAHFLQGKNPFRPAGLEVVEHTEASKALNRAPGPMVVLAGSGMLAGGRILHHLKHGLSDPRNALVFVGYQPQGGLGAEIIARPPAVRILGEEVPLRASVHTLGGFSGHAGQDELLDWLQGEPRVVLVHGEEEKLLALGKLLALRGQEVSLARFGEGVPV” it is “not failed”.
In the case of “MRKIFLACPYSHADAEVVEQRFRACNEVAATIVRAGHVVFSQVSMSHPINLCLAELDRAAIGRLWAPVDAFYMDHLEELIVLDLPGWRDSAGIRREMEFFEAGGQRVSLWSEVEHEFR”, the protein production result is “not failed”.
The entry for “MRKIVLFGDSITAGYLDEAVSPVLVDLVKRDIAAMGLEEVAVINAGMPGDTTEDGLKRLNKEVLIEKPDEVVIFFGANDASLDRNITVATFRENLETMIHEIGSEKVILITPPYADSGRRPERPQTRIKELVKVAQEVGAAHNLPVIDLYKAMTVYPGTDEFLQADGLHFSQVGYELLGALIVREIKGRLKPKQA” is “not failed”; for “MRKLDRVDMQLVKILSENSRLTYRELADILNTTRQRIARRIDKLKKLGIIRKFTIIPDIDKLGYMYAIVLIKSKVPSDADKVISEISDIEYVKSVEKGVGRYNIIVRLLLPKDIKDAENLISEFLQRIKNAENVEVILISEVRKFEII” it is “not failed”; for “MRKLFIPLLLFSALEANEKNGFFIEAGFETGLLEGTQTQEKRHTTTKNTYATYNYLPTDTILKRAANLFTNAEAISKLKFSSLSPVRVLYMYNGQLTIENFLPYNLSNVKLSFTDAQGNVIDLGVIETIPKHSKIVLPGEAFDSLKIDPYTLFLPKIEATSTSVSDANTQRVFETLNKIKTDLVVNYRNENKFKDHENHWEAFTPQTAEEFTNLMLNMIAVLDSQSWGDAILNAPFEFTNKDGGEECDTSKENECVNPGTNGRVNSKVDQQYVLNKQDIVNKFRNKADLDVVILKDSGVVGLGSDITPSNNDDGKHYGQLGVVASALDPKKLFGDNLKTINLEDLRTILHEFSHTKGYTHNGNMTYQRVPVMKDGQVEKDSNGKPKDSDGLPYNVCSLYGGQGQSAFPSNYPNSIYHNCADVPAGFLGVTAAVWQQLINQNALPINYANLSTQTNYNLNASLNTQDLANSMLSTIQKTFVTSSVTNHYSSSASQSFRSPILGVNAKIGYQNYFNDFIGLAYYGIIKYNYAKAINQKVQQLSYGGGIDLLLDFITTYSNKNSPTGIQTKRNFSSSFGIFGGLRGLYNSYYVLNKVKGSGNLDVATGLNYRYKHSKYSVGISIPLIQRKASVVSNGGDYTNSFVFNEGASHFKVFFNYGWVF” it is “failed”.
On to “MRKLLLGLSALTLATASAAAAQDPGPAAPVQYEVAFPNATHREARITATFRKVPKGALQLRMSRSSPGRYAIHEFAKNVYQVTAVDGAGKPLKVDRAEPYGWSVSGHDGTVKVTYTLYADRGDGTYSQIDTTHAHLNMPATFLWAVGYHDKPIRVRFERADPSWKIATQLPPVAGQPDSFWAPNLQYFMDSPTELSAMTVREWKVTDKGRDYTFRLALHHTGTEADADTFAEKLKAIVPEHIKVFGELPKFDYGEYTFIADYMPQITGDGMEHRNSTFISQPRSLFRGNFSQLGTASHELFHAWNVERIRPAELEPFDFTKANPTPSLWLAEGFTQYYGPLLIRRAGQSSMDEFLTGLSGTLNGVVNGPGRLYGSPQEMSLRAPFVDAAAALDPVNPNIFTSYYPYGAVIGLALDLQLRGRDKPLSLDDFMKQMWRAHGVTEKPYTPADVRAALAKTTGDQAFADAFFKASIEGSALPDFAPLLERAGLKLRQKAPKKAWLGAARVKVSGTELLLDAPPVPNSPLYGAGVEVGDRIISIGRFVFANESDWTDALDRLKPGEAMTVQFIQRGQVREAPMTIAADPTLEVVRFEKVDLKPTEAQLAFRTAWLGAEAEAAK”, for which the protein production result is reported as “failed”.
On to “MRKRARIIYNPTSGKELFKRELPDALIKLEKAGYETSAYATEKIGDATLEAERAMHENYDVLIAAGGDGTLNEVVNGIAEKPNRPKLGVIPMGTVNDFGRALHIPNDIMGALDVIIEGHSTKVDIGKMNNRY”, for which the protein production entry is recorded as “failed”.
For the sequence “MRKSFNLIWMVFGFLLLIVGCNEDKKSTAFDPNQPVKFTEFMPDSGGIRTKFIVKGSNFGEDKSQVKVYFKDEVGNEREALVLGVKPDVIYAQVPKQAGGESHVRVEIAGKEAELSNAEKTFKYIVTSSVSTVVGKAKEGGNKDGTLGETTFNTPRYVAVDNDDNVFIFDSDGRTRLSSIEQNKTITLLDGMVIDQPLFIDKEKKQLFGPCDNANFGCFLFDANVSWVADKMGQLLANGGWMHSVVLDPVDSTFVIYRQNTGQLWTQPFDKNRRTLNPNKAKRIGTLYNTGSNGLCAYNPVDKYVYCVLHSKSAVYRFKLTRDADGWPALDGDIDEYIPGAGAGFRDGDVQEAQFKEPRGIAIDKEGNLYIADVGNNRIRKVDTKLNVVTTIAGSGAAGYKDGDPLEAQFNQPWGVYLDKNEFLYIADQNNHCIRKLAIE”, the protein production entry is on record as “failed”.
Turning to “MRKVLLTIRKIAMTQPTSRKADLVYQLNDRPPLPQTLFAALQHLLAMFVAVITPSLIICQSLGVPADQTNTIISMSLFASGLSSFIQIRTFGPIGSGLLSIQGTSFNFLGPIIGAGLALKAGGADIETMMAAIFGTILVASSAEILLSRVLQFAQRIITPLVSGIVVTLIGLTLVQVGLISMGGGYAAMADGSFGSLDKLALAGTVLAIIVLLNRAHNPYVRVASIVIAMLVGYVMAYLMGMVNTDNLAETQFIALPIPMQYGLGFDWSLFIPLVLIFLITALEAIGDITATSEVSGEPVKGPVYMKRIKGGVLADGLNSALAAVFNSFPNSTFSQNNGVILLTGVASRYVGYFIAGMLVLLGLFPGVASFVQLIPEPVLGGATIVMFGTIAAAGVRIISRVDLDRRAILIMALSFSMGLGIAQKPEILQFMPEFIKNLFSSGVAAGGITAIVLNLLLPEVRRDEDAASVAKTEAAQESN”, the protein production result is “failed”.
Consider “MRKVLMFLSTALLLAILSLSFTGLDLKAKAASDLYPLPAPIIDVFPDDGLAKDMAKNLNKDSVNDVIDQDDLDALTGLGFETSTITNDSMQLLERAMFNNVTDVSIMEFGAKLTEFPDITTIPHLKTLFFADPPGRLTRNLSLPNYQNYPEMDTITMSGNNLIGSIPDFTGMPALKQLYMSEMLITSDELPNFNNIPLLITLDLSSNQLTTIPDFQNIPNLTFLDLNANLLTNTPDFQNLPKLTDLNLRHNNLTGTMVNYTNLPSLESLNLDYNFLTELPSNVLDTIYVQSQNGELPDQTINQGDTCTIDLPIYFQMEETNMLVSPEVTGEYIGISVIQLPTTVNEEGNTITVDTSALSPGEYKLDVSYNHNYATGGVCSYDWNVTIN”, for which the protein production result is listed as “failed”.
In the case of “MRKVQVLVQTRDGKKTVYEVDRLGTVASLKARIGQVMSVPMGFSRLSYKGRVLSNQSVLEDLGPNKSTLDLTWKPVVLTANQSSKLSKFGYGRIDDSEVMFTLIGGYQQREEYPGGLVNPPDDESQLNFNAGDDDDALEAQDMTGHDLSSIQTDDLSLKGQTEPELDCSIGSHGFSGSQEEGHE”, the protein production entry is “failed”.
On to “MRKVRIANEQTEESDIIKIVHLSDIHFSEAYYMPEIADSMLQIINESSPDIVIITGDLTENGFAAEYNGAKNFIDKIECKNKVIVPGNHDSKNAGYLFFEDIFKARSSSGYFGDVTVIGLDSSQPELDDGHIGRENYGWIESTFSTGSFKVFALHHHLIPIPKTGRGNNVLVDAGDVLELLDRSGVNLVLCGHWHIPWVWRLNDMFIISAGTVCSSKIRGKTSQCYNLIELETPESECTRWHLRITRVFSSGIKELVVDNIV”, for which the protein production entry is “failed”.
With “MRKYLAEFLGTFMLVFLGTATVVIAKGDVLAIGLAFGLAITVSAYAFGGISGGHFNPAVTTAMLINRRIDAADAIGYIIAQIIGAIVASAAVKSFVSALGLSATLLGQTDFPKIGSGMAFFVEALVTFLFLMVILNVTSNDHGNADFAGLTIGVTLAFLIIVALNLTGGSLNPARSIGPAIFAGGSALSHLWVYILAPEVGAILAAFCARVMGSED”, the protein production entry is reported as “failed”.
